Laboratory results as given in patent US20190284544.

Columns and labels:
[1] = system: CAPN5-370-380 peptide (RQNRGGGCINH)
CAPN5p.372-378 peptide = CAPN5p.372-378 peptide (UniProt O15484)
[2] = system: homologous regions of other CAPN members

CAPN5-R243L, sequence (chain, as listed by the source R243L): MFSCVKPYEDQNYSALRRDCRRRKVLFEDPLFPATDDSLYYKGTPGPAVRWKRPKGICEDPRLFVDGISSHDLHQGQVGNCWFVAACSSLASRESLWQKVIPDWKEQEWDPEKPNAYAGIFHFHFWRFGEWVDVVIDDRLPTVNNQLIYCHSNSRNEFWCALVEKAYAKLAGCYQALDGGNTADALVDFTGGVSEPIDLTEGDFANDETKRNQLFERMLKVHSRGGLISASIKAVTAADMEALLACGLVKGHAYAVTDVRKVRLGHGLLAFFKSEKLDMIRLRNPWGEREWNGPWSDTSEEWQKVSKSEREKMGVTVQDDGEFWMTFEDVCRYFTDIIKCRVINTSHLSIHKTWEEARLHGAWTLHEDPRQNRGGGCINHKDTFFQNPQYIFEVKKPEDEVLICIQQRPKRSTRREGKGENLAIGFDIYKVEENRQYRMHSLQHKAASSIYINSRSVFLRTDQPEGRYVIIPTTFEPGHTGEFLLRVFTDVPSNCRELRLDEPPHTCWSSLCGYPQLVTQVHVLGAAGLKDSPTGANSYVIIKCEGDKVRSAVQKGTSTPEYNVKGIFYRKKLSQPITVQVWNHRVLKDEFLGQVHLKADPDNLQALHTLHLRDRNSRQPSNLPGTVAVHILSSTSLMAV
CAPN5-370-390 peptide, sequence (chain, as listed by the source): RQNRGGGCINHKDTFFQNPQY
CAPN1 WT, sequence (P07384 2-714): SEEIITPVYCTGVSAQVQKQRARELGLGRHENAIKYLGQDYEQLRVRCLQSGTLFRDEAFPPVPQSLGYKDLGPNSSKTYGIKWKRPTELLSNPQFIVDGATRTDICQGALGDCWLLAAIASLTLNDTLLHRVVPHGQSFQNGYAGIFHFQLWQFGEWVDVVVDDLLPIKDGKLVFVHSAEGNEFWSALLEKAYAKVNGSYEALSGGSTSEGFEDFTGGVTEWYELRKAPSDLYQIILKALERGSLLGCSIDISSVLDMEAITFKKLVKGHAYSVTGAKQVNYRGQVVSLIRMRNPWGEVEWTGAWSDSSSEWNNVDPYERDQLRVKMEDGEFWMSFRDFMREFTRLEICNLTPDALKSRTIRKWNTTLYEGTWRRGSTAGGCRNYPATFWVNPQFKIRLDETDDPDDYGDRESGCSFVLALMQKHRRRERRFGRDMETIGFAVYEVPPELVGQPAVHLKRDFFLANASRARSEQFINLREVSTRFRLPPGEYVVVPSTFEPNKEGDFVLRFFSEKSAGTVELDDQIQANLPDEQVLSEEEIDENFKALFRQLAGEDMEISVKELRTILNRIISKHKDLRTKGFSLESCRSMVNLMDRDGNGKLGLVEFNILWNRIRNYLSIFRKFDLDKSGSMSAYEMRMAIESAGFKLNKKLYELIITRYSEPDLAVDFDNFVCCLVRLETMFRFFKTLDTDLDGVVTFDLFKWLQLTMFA
Pep-1-Mod, sequence (chain, as listed by the source): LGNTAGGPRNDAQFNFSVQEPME
CAPN14 peptide, sequence (chain, as listed by the source): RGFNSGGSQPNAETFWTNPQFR
Pep-2-Mod, sequence (chain, as listed by the source): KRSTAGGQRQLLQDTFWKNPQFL

MBP-CAPN5 WT
reaction rate (initial velocity of proteolysis) (Pep-1-Mod): Modification of the amino acids slows the reaction rate | reaction rate (initial velocity of proteolysis) (Pep-2-Mod): Modification of the amino acids slows the reaction rate

CAPN5-R243L
cleavage (change in fluorescence) [1]: the CAPN5-370-380 fragment was the most sensitive to cleavage by both WT and R243L CAPN5 | fluorescent intensity (FRET substrate proteolysis) [1]: the greatest fluorescent intensity is detected with substrates CAPN5 (p370-390), CAPN5 (370-380), and PDGFB (155-170) | fluorescent intensity (FRET substrate proteolysis) (CAPN5-370-390 peptide): the greatest fluorescent intensity is detected with substrates CAPN5 (p370-390), CAPN5 (370-380), and PDGFB (155-170) | fluorescent intensity (FRET substrate proteolysis) (PDGFB (155-170) peptide): the greatest fluorescent intensity is detected with substrates CAPN5 (p370-390), CAPN5 (370-380), and PDGFB (155-170)

CAPN5 WT (Homo sapiens calpain 5)
proteolysis (CAPN14 peptide): there was some proteolysis of the CAPN14 peptide | cleavage (change in fluorescence) [1]: the CAPN5-370-380 fragment was the most sensitive to cleavage by both WT and R243L CAPN5 | cleavage (fluorescence) [1]: rapid and high cleavage of the 11 aa peptide | fluorescent intensity (FRET substrate proteolysis) [1]: CAPN5-WT proteolyzes the substrate, CAPN5 (p370-380), at a higher rate than other peptides | proteolysis (fluorescence) [1]: The peptide shows high proteolysis when incubated with CAPN5-WT | cleavage (fluorescence) (CAPN5-370-390 peptide): The 21 aa peptide was cleaved slower and does not show cleavage substrate inhibition | cleavage (fluorescence) (CAPN5p.372-378 peptide): There was mild cleavage of the 7 aa peptide was observed | initial reaction rate (proteolysis of CAPN5p.370-80 by CAPN5 WT) (Cyclic CAPN5 p.370-80): Addition of 10 µM Cyclic CAPN5 p.370-80 slows the initial reaction rate by 40% | initial velocity versus substrate concentration, with and without 10 µM cyclic peptide (Cyclic CAPN5 p.370-80): Increasing concentrations of substrate does not overcome inhibition by cyclic peptide | proteolysis (EPLFAERK peptide): it is not proteolyzed by CAPN5 | proteolysis (fluorescence) (EPLFAERK peptide): very limited proteolysis when incubated with CAPN5-WT | proteolysis [2]: CAPN5 did not proteolyze homologous regions of other CAPN members as well as it proteolyzed its own site

CAPN1 WT
proteolysis [2]: CAPN1 does not appear to proteolyze these regions
